Test results as given in paper PMC10783490, “Biochemical and cellular insights into the Baz2B protein, a non-catalytic subunit of the chromatin remodeling complex” (Nucleic Acids Research, 2023).

Assays:
Details in all cases: protein: recombinant; tags: His6
TAM-AT1-AT2 Baz2B [1] = molecular target: T1, TAM-AT1-AT2 Baz2B (Homo sapiens, UniProt Q9UIF8 721-884); experiment: MST; EMSA: 20 mM HEPES pH 7.5, 30 mM KCl, 1 mM EDTA, 10 mM (NH4)2SO4, 1 mM DTT, 4 C, 10 nM probe; MST: same plus 0.1 ug/ml BSA, 5 nM probe, 25 C; GST-AT-hook and bromodomain EMSA as in cited refs
T1 sequence: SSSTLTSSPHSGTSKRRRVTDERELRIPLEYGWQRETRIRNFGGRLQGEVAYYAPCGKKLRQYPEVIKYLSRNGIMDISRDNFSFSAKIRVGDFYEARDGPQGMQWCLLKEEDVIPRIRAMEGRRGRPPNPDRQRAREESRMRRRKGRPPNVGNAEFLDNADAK

TAM-AT1-AT2 Baz2B R765E = molecular target: T2, TAM-AT1-AT2 Baz2B R765E (Homo sapiens, UniProt Q9UIF8 721-884, R765E); experiment: EMSA; EMSA: 20 mM HEPES pH 7.5, 30 mM KCl, 1 mM EDTA, 10 mM (NH4)2SO4, 1 mM DTT, 4 C, 10 nM probe; MST: same plus 0.1 ug/ml BSA, 5 nM probe, 25 C; GST-AT-hook and bromodomain EMSA as in cited refs
T2 sequence: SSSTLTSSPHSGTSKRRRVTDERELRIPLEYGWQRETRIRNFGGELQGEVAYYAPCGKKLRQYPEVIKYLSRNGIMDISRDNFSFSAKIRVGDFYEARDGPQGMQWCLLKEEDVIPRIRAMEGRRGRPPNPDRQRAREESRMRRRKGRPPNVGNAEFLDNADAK

TAM-AT1-AT2 Baz2B Q767A = molecular target: T3, TAM-AT1-AT2 Baz2B Q767A (Homo sapiens, UniProt Q9UIF8 721-884, Q767A); experiment: as above
T3 sequence: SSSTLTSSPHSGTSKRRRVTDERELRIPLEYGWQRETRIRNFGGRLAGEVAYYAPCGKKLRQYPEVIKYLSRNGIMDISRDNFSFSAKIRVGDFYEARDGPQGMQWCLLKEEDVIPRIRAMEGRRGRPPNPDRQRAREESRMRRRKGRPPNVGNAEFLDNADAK

TAM-AT1-AT2 Baz2B R781E = molecular target: T4, TAM-AT1-AT2 Baz2B R781E (Homo sapiens, UniProt Q9UIF8 721-884, R781E); experiment: as above
T4 sequence: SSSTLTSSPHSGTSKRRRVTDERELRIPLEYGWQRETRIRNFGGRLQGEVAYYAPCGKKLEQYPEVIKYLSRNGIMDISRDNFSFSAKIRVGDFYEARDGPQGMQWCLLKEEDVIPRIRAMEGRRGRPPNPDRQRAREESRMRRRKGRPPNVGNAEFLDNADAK

TAM-AT1-AT2 Baz2B [2] = molecular target: T1, TAM-AT1-AT2 Baz2B; experiment: as above
TAM-AT1-AT2 Baz2B R837E = molecular target: T5, TAM-AT1-AT2 Baz2B R837E (Homo sapiens, UniProt Q9UIF8 721-884, R837E); experiment: as above
T5 sequence: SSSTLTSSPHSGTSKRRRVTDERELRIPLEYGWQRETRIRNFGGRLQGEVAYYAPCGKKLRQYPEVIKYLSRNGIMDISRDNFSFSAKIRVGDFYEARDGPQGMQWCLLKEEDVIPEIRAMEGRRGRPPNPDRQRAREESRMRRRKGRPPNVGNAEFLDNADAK

TAM-AT1-AT2 Baz2B L766A = molecular target: T6, TAM-AT1-AT2 Baz2B L766A (Homo sapiens, UniProt Q9UIF8 721-884, L766A); experiment: as above
T6 sequence: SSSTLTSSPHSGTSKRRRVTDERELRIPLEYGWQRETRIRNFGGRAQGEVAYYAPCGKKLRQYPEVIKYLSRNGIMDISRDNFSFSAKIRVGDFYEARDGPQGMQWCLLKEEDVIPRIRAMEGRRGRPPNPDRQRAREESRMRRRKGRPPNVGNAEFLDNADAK

TAM-AT1-AT2 Baz2B R760E = molecular target: T7, TAM-AT1-AT2 Baz2B R760E (Homo sapiens, UniProt Q9UIF8 721-884, R760E); experiment: as above
T7 sequence: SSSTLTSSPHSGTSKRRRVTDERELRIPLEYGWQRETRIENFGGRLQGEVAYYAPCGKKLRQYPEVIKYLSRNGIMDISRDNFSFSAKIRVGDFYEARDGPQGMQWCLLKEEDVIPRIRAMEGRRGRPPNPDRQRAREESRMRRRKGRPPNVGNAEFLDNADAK

TAM-AT1-AT2 Baz2B [3] = molecular target: T1, TAM-AT1-AT2 Baz2B; experiment: EMSA; mutant series; EMSA: 20 mM HEPES pH 7.5, 30 mM KCl, 1 mM EDTA, 10 mM (NH4)2SO4, 1 mM DTT, 4 C, 10 nM probe; MST: same plus 0.1 ug/ml BSA, 5 nM probe, 25 C; GST-AT-hook and bromodomain EMSA as in cited refs

ATCAGTTCTCCGGGTTGTCAGGTCGACCAGTTGTTCCTTTGAGGT (ssDNA) [45 nt ssDNA FLP015] was tested, and the Kd (TAM-AT1-AT2 Baz2B [1]) was 160 nM, the Kd (TAM-AT1-AT2 Baz2B R765E) was 93.1 ± 13 nM and the Kd (TAM-AT1-AT2 Baz2B Q767A) was 206 ± 81 nM. For the same binder, the Kd (TAM-AT1-AT2 Baz2B R781E) was 220 ± 110 nM, the Kd (TAM-AT1-AT2 Baz2B [2]) was 122 nM and the Kd (TAM-AT1-AT2 Baz2B R837E) was 248 ± 84.2 nM. For the same binder, the Kd (TAM-AT1-AT2 Baz2B L766A) was 275 ± 82.9 nM, the Kd (TAM-AT1-AT2 Baz2B R760E) was 161 ± 44.7 nM and the Kd (TAM-AT1-AT2 Baz2B [3]) was 228 ± 97.8 nM.
